The target in assay [1] is Neutravidin (deglycosylated avidin) (UniProt P02701). In words: multiplex, Neutravidin bead 40/60 without peptide, flow cytometry. Background: Flow cytometry measures light scatter and fluorescence of single cells or particles in a stream.
The target is the same in assay [2]. Description: multiplex, Neutravidin bead 60/70 without peptide, flow cytometry.
For assay [3] the target is unchanged. Description: multiplex, Neutravidin bead 70/50 without peptide, flow cytometry.
The target of a further assay is Peptide 1 …-biotin. Description: single-analyte peptide bead, flow cytometry; MAB 384-Bodipy 15.5 ug/mL.
The next assay concerns the target Peptide 2 …-biotin. The description is as above.
The target in another assay is Peptide 4 …-biotin. The assay is described as above.
Assay [4] addresses Peptide 5 …-biotin (human). The assay is described as above.
A further assay addresses Peptide 6 …-biotin. The description is as above.
For another assay, the target named is Peptide 7 …-biotin. The assay is described as above.
The next assay addresses Peptide 8 …-biotin. Described as above.
In assay [5] the target is Neutravidin (deglycosylated avidin) (UniProt P02701). In words: single-analyte, Neutravidin bead 70/40 without peptide, flow cytometry.
In assay [6] the target is Alpha fetoprotein (UniProt P02771). Description: multiplex sandwich, S10473 capture beads; AFP 1 ng/mL, washed.
UniProt P02771, sequence (P02771 19-609 limits assumed): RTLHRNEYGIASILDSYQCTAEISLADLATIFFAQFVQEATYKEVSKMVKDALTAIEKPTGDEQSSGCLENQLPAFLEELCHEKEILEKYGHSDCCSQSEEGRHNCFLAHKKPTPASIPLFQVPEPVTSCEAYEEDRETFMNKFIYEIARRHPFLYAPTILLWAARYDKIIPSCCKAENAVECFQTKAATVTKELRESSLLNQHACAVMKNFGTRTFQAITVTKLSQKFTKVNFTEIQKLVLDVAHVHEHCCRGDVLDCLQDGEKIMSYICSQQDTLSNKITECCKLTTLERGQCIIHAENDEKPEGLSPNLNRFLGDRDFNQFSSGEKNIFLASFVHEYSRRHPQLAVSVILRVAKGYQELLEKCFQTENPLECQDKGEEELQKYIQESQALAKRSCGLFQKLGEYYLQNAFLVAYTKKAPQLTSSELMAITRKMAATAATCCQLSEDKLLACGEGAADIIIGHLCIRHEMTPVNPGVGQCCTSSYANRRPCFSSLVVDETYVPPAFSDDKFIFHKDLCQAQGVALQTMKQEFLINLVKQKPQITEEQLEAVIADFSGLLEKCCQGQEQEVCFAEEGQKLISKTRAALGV
Assay [7] has the same target. In words: multiplex sandwich, S10473 capture beads; AFP 16 ng/mL, washed.
Assay [8] has the same target. In words: multiplex sandwich, S10473 capture beads; AFP 62 ng/mL, washed.
For assay [9] the target is unchanged. In words: multiplex sandwich, S10473 capture beads; AFP 0.5 ng/mL, washed.
The target is the same in assay [10]. Description: multiplex sandwich, S10473 capture beads; AFP 0.25 ng/mL, washed.
The target is the same in assay [11]. In words: multiplex sandwich, S10473 capture beads; AFP 500 ng/mL, no wash.
For assay [12], the target named is Human chorionic gonadotropin (human) (UniProt P01215). Description: MAB602 capture beads, flow cytometry; hCG 100.0 ng/mL, anti-AFP probe.
UniProt P01215, sequence (P01215 25-116, chain 1 of 2, other chains not shown): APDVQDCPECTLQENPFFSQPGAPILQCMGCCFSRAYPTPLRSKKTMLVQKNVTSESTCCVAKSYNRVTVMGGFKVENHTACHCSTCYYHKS
The target in assay [13] is Alpha fetoprotein (UniProt P02771). In words: anti-AFP capture beads, flow cytometry; AFP 1.0 ng/mL, anti-AFP probe.
Assay [14] has as its target Human chorionic gonadotropin (human) (UniProt P01215). Description: anti-AFP capture beads, flow cytometry; hCG 0.0 ng/mL, anti-AFP probe.
The target of assay [15] is Alpha fetoprotein (UniProt P02771). Description: anti-AFP capture beads, flow cytometry; AFP 1000.0 ng/mL, anti-AFP probe.
The target is the same in assay [16]. In words: multiplex no-wash sandwich, S10473 beads; Negative serum, AFP 2 U/mL.
For assay [17] the target is unchanged. In words: multiplex no-wash sandwich, S10473 beads; Unknown serum, AFP computed 39.59 U/mL.
Assay [18] addresses Human chorionic gonadotropin (human) (UniProt P01215). In words: sandwich, MAB602 capture beads, flow cytometry; hCG 2 ng/mL.
Assay [19] has the same target. In words: multiplex sandwich, MAB602 capture beads; hCG 2 ng/mL, washed.
The target is the same in assay [20]. Description: multiplex sandwich, MAB602 capture beads; hCG 31 ng/mL, no wash.
Assay [21] shares this target. In words: multiplex sandwich, MAB602 capture beads; hCG 500 ng/mL, washed.
Assay [22] shares this target. Description: multiplex sandwich, MAB602 capture beads; hCG 62 ng/mL, no wash.
For assay [23] the target is unchanged. Description: multiplex sandwich, MAB602 capture beads; hCG 0.5 ng/mL, no wash.
The target is the same in assay [24]. In words: multiplex sandwich, MAB602 capture beads; hCG 1000 ng/mL, washed.
For assay [25] the target is unchanged. In words: multiplex sandwich, MAB602 capture beads; hCG 2000 ng/mL, washed.
Assay [26] shares this target. Description: multiplex sandwich, MAB602 capture beads; hCG 250 ng/mL, no wash.
For assay [27] the target is unchanged. Description: multiplex sandwich, MAB602 capture beads; hCG 500 ng/mL, no wash.
The target is the same in assay [28]. In words: multiplex sandwich, MAB602 capture beads; hCG 1000 ng/mL, no wash.
The target is the same in assay [29]. Description: bead sandwich, flow cytometry; capture A3 beads, no hCG (background).
For assay [30], the target named is Alpha fetoprotein (UniProt P02771). In words: anti-AFP capture beads, flow cytometry; AFP 0.0 ng/mL, anti-hCG probe.
The target is the same in assay [31]. In words: anti-AFP capture beads, flow cytometry; AFP 0.1 ng/mL, anti-hCG probe.
Assay [32] shares this target. In words: MAB602 capture beads, flow cytometry; AFP 1000.0 ng/mL, anti-hCG probe.
Assay [33] deals with Human chorionic gonadotropin (human) (UniProt P01215). Description: multiplex no-wash sandwich, MAB602 beads; serum Level 3D, hCG 218 mU/mL.
For assay [34] the target is unchanged. Description: multiplex no-wash sandwich, MAB602 beads; Negative serum, hCG 10 mU/mL as printed.

Values joined by “and” are separate entries in the source; they are usually repeats but may differ in a detail not shown here. Equal entries are not always repeated.

UniProt P02701, sequence (P02701 25-152 limits assumed): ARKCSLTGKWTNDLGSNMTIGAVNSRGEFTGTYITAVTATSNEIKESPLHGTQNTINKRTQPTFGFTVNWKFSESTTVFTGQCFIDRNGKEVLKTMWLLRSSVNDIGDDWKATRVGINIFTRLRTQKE

Turning to MAB 384, Bodipy FL-X labeled (antibody), the MIF of Fm in assay [1] is 26; in assay [2], 36; in assay [3], 28; in the assay with Peptide 1 …-biotin it was 72; with Peptide 2 …-biotin it was 57; with Peptide 4 …-biotin, 57. Also, the MIF of Fm came out at 1380 in [4]; 43 in the assay with Peptide 6 …-biotin; 42 with Peptide 7 …-biotin; 73 with Peptide 8 …-biotin; 60 in [5].

Consider “M20077 affinity purified polyclonal anti-AFP antibody, Bodipy FL-CASE labeled”, for which the MIF of Fm with Alpha fetoprotein [6] was 35; in the assay with Alpha fetoprotein [7], 347; with Alpha fetoprotein [8] it was 814; with Alpha fetoprotein [9] it was 25; with Alpha fetoprotein [10] it was 24; with Alpha fetoprotein [11], 643. Also, the MIF of Fm in assay [12] was found to be 48; in the assay with Alpha fetoprotein [13] it was 98; in assay [14], 45; with Alpha fetoprotein [15], 348. In addition, the MIF AVG with Alpha fetoprotein [16] amounted to 12.3; in the assay with Alpha fetoprotein [17], 276. Moreover, the MIF of FL1 with Alpha fetoprotein [16] was 11 and 13; with Alpha fetoprotein [17], 268 and 274 and 286.

Take “AB633 affinity purified polyclonal anti-hCG antibody, Bodipy FL-CASE labeled”: the MIF of Fm was 1290 and 1380 in assay [18]; 547 in assay [19]; 2510 in [20]; 3340 in assay [21]; 2420 in assay [22]; 166 in assay [23]. Besides, the MIF of Fm in [24] stood at 3160; in assay [25], 3190; in assay [26], 1520; in assay [27], 1200; in assay [28], 770; in assay [29], 2980. The MIF of Fm turned out to be 61 with Alpha fetoprotein [30], 75 with Alpha fetoprotein [31] and 53 with Alpha fetoprotein [32]. For the same substance, the MIF AVG in [33] is 272; in assay [34], 7.33. The MIF of FL1 in [33] was 268 and 276 and 271; in assay [34] it was 8 and 7.

Source of the values: US20040059519A1.
